Legend:
Assay in all cases: Y2H, beta-gal staining
[1] = biological target: T1, GAL4 activation domain fusion to HAB1^V393R (Arabidopsis thaliana (Mouse-ear cress), UniProt Q9CAJ0 4-511)
T1 construct: Mutant of the pACT-HAB1 template, which lacks the three N-terminal amino acids of HAB1; Denoted HAB1^!
T1 sequence: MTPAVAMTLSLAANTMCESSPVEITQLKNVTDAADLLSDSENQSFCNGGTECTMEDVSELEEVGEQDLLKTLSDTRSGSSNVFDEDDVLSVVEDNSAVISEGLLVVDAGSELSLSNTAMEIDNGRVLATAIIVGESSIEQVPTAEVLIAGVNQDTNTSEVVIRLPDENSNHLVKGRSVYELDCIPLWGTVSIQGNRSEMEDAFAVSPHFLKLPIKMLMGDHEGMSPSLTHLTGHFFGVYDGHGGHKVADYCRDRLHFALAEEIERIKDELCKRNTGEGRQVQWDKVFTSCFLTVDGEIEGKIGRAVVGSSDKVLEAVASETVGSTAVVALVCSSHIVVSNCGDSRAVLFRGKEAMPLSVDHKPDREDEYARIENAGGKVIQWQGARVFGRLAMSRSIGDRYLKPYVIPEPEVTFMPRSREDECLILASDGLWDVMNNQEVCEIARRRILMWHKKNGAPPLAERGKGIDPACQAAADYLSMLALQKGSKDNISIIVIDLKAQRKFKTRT

[2] = biological target: T2, GAL4 activation domain fusion to HAB1 E203D (Arabidopsis thaliana (Mouse-ear cress), UniProt Q9CAJ0 4-511)
T2 construct: Mutant of the pACT-HAB1 template, which lacks the three N-terminal amino acids of HAB1
T2 sequence: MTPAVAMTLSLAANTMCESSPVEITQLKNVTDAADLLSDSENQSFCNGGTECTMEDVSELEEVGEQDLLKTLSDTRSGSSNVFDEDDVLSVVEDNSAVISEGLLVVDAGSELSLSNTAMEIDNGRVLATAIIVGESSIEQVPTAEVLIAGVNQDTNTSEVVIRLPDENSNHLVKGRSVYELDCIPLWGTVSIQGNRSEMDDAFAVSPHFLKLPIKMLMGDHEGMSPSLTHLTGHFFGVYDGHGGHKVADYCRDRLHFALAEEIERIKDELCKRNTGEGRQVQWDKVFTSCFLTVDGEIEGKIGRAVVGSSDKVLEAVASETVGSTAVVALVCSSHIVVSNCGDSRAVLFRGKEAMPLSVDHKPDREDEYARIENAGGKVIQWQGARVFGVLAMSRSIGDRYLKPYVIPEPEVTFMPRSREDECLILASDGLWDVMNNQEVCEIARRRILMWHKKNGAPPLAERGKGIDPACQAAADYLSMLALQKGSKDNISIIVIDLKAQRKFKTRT

[3] = biological target: T3, GAL4 activation domain fusion to HAB1 E203W (Arabidopsis thaliana (Mouse-ear cress), UniProt Q9CAJ0 4-511)
T3 construct: Mutant of the pACT-HAB1 template, which lacks the three N-terminal amino acids of HAB1
T3 sequence: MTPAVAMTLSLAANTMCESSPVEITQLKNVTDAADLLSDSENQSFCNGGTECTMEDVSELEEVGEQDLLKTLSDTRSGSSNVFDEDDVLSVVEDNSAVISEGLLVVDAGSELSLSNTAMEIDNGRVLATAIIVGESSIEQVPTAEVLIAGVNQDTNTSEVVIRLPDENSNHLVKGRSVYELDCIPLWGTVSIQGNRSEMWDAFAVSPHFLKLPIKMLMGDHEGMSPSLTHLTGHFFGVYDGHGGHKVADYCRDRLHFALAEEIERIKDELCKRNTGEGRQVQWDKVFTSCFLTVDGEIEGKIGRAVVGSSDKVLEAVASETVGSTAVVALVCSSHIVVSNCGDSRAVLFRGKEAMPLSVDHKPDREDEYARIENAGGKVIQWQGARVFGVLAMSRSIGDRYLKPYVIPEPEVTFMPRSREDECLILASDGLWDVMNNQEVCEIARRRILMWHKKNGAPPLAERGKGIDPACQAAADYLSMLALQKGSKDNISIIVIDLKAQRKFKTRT

[4] = biological target: T4, GAL4 activation domain fusion to HAB1 V393Q (Arabidopsis thaliana (Mouse-ear cress), UniProt Q9CAJ0 4-511)
T4 construct: Mutant of the pACT-HAB1 template, which lacks the three N-terminal amino acids of HAB1
T4 sequence: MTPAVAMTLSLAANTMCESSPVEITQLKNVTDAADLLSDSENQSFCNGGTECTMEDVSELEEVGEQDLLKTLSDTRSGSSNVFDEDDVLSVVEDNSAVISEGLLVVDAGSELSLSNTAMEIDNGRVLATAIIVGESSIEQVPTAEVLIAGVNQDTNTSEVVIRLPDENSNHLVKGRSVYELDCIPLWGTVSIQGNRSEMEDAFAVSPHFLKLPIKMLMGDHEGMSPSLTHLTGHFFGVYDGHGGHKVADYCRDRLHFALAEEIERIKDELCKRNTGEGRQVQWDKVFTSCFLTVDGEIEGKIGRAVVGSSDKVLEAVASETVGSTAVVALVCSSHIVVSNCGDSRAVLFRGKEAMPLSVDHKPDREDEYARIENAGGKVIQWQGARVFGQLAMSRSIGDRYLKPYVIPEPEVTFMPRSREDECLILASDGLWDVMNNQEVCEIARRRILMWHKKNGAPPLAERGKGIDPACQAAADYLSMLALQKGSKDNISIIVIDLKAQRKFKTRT

[5] = biological target: T5, GAL4 activation domain fusion to HAB1 V393K (Arabidopsis thaliana (Mouse-ear cress), UniProt Q9CAJ0 4-511)
T5 construct: Mutant of the pACT-HAB1 template, which lacks the three N-terminal amino acids of HAB1
T5 sequence: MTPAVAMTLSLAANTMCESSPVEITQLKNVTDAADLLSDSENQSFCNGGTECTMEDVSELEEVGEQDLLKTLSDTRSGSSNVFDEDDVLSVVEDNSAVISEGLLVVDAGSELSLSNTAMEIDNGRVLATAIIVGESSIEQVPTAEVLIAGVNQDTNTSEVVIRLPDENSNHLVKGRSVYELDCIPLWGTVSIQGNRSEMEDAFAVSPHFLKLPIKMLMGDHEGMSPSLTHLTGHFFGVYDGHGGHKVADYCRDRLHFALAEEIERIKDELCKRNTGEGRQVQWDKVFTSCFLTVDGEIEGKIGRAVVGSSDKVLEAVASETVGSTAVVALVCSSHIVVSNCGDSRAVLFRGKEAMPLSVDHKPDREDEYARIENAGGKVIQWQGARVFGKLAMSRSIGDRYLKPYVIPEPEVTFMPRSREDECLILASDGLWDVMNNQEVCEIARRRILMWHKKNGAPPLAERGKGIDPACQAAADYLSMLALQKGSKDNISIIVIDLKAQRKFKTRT

Measured: binding result

B1: GAL4 DNA binding domain fusion to PYR1 (pBD-PYR1), wild type (receptor)
chain: MKLLSSIEQACDICRLKKLKCSKEKPKCAKCLKNNWECRYSPKTKRSPLTRAHLTEVESRLERLEQLFLLIFPREDLDMILKMDSLQDIKALLTGLFVQDNVNKDAVTDRLASVETDMPLTLRQHRISATSSSEESSNKGQRQLTVSMPSELTPEERSELKNSIAEFHTYQLDPGSCSSLHAQRIHAPPELVWSIVRRFDKPQTYKHFIKSCSVEQNFEMRVGCTRDVIVISGLPANTSTERLDILDDERRVTGFSIIGGEHRLTNYKSVTTVHRFEKENRIWTVVLESYVVDMPEGNSEDDTRMFADTVVKLNLQKLATVAEAMARNSGDGSGSQVT
notes: Yeast two-hybrid bait expressed in S. cerevisiae; also called WT
no binding (tested: 10 µM ABA): all assays above

— patent publication US20190389914A1 (University of California, published 2019)
